Reference: the supplement of paper PMC9170038

Tested on: MS2 coat protein
Experiment: apparent KD of MS2 coat protein; designed switch direction (-1 OFF switch, 1 ON switch): -1; higher = weaker reporter binding
Outline: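 Designed RNA switches with common flanks were transcribed on Illumina chips by stalled E. coli RNA polymerase and titrated with SNAP-549-labelled MS2 coat protein, from 0.7 or 1.5 nM doubling to 3 µM, in Tris-HCl pH 7.5 buffer with KCl, MgCl2, BSA, DTT, tRNA and Tween-20. Steps lasted 0.8–1.5 h (lowest) to 10–20 min (highest). Titrations ran without input, with 200 uM small-molecule ligand, or with an oligonucleotide input. Normalised cluster fluorescence was curve-fitted, and apparent KD is the per-design median over clusters.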

[1] = input ligand: microRNA oligo, concentration not stated
[2] = Eterna round: R95, input ligand: FMN 200 uM
[3] = Eterna round: R95, input ligand: microRNA oligo, concentration not stated
[4] = Eterna round: R95, input ligand: none

| Sequence | apparent KD of MS2 coat protein (input ligand: FMN 200 uM) [nM] | apparent KD of MS2 coat protein (input ligand: none) [nM] | apparent KD of MS2 coat protein [1] [nM] | apparent KD of MS2 coat protein [2] [nM] | apparent KD of MS2 coat protein [3] [nM] | apparent KD of MS2 coat protein [4] [nM] |
| --- | --- | --- | --- | --- | --- | --- |
| AGCCACAGAGGAUAUACAUACAUCCAGUAGUAGAUACUACUACAUGAGGAUCACCCAUGUAGAAGGCUGUGGCA [Omei Ex2 BD B17] (Eterna round: R97, puzzle: Exclusion 2) | 603 | 162 | – | – | – | – |
| AGCCUGUAAUCCCUCAGACAUGAGGAUCACCCAUGUGGAUGUAAGGAUAUAGGUGCAAUUGCAAUCUAGAAGGUACGCCGUCAG [Eternabot solution 32] (Eterna round: R96, puzzle: Exclusion NG 3) | 44.8 | 31.4 | 23.1 | – | – | – |
| AGCGAAUAGCUAGGAUAUGAGAAUAGAUAGAGCUCAGAAGGAGCACAUGAGGAUCACCCAUGUGAAGUCUUGAGGCUGCGUGGU [Prohibition 17 - Jieux - Exclusion NG 1] (Eterna round: R96, puzzle: Exclusion NG 1) | 20.8 | 18.8 | 14.7 | – | – | – |
| AGCGCCAUCGUGAGAUGGCGUAUUACAUGAGGAUCACCCAUGUAGGAUAUCGAUUGCUUUGCAGUCGAGAAGGACAUGUUCUUG [JL ENG3 3.80 Mod B] (Eterna round: R96, puzzle: Exclusion NG 3) | – | – | 39.4 | – | – | – |
| AGCGUGGAGACAGGAUAUGAGAAUAGAUAGAAAUCAGAAGGGUCACAUGAGGAUCACCCAUGUAAAGUCUUGAGGAUGAGUGAU [Prohibition 3 - Jieux - Exclusion NG 1] (Eterna round: R96, puzzle: Exclusion NG 1) | – | – | 70.4 | – | – | – |
| AGCUAGAUAGGAUAUGCCCGAGAUAACAUGAGGAUCACCCAUGUGACCGAAUCAAAUCUAGCAGAAGGGUUUAGGA [Mod of ViennaUCT 15 - Jieux - Exclusion 5] (Eterna round: R97, puzzle: Exclusion 5) | 16.5 | 17.2 | – | – | – | – |
| AGCUGACGAGGAUAUACAUGAGGAUCACCCAUGUUGGUCAAGCGACGAUAGUCGCAAUGUAGAAGGCGUCAGCU [E3/8-A1] (Eterna round: R97, puzzle: Exclusion 3) | 621 | 547 | – | – | – | – |
| AGCUGUGGCCGAGGAUAUCAAGAACCAUGGAAAACCAUGGAACCUUGACAUGAGGAUCACCCAUGUGAGAAGGCGGUCUCAGCA [Eli eng2 - 026] (Eterna round: R96, puzzle: Exclusion NG 2) | – | – | 11.1 | – | – | – |
| AGCUGUGGCCGAGGAUAUCUAACAGUCCCAACCGAAAUAUAAUCGGACAUGAGGAUCACCCAUGUAGAGAAGGCGGUCUCAGCA [Eli eng2 - 072] (Eterna round: R96, puzzle: Exclusion NG 2) | 324 | 222 | 157 | – | – | – |
| AGGACGGCAGGAUAUACAUGAGGAUCACCCAUGUCUGGUGUCGAGCUAAUUGUGCAUAGUAGAAGGGUCGCUCC [Eternabot (L1) Solution 39] (Eterna round: R97, puzzle: Exclusion 3) | 204 | 62.1 | – | – | – | – |
| AGGAGACAUGAGGAUCACCCAUGUGAGGAUAUCGAUGUUACGUGGAUAACCACUUCGUUGAGAAGGCACGCUUC [Eternabot (L2) Solution 55] (Eterna round: R97, puzzle: Exclusion 1) | 43 | 38.6 | – | – | – | – |
| AGGAUGUAAGGAUAUCCAAGGGUAACGCCAAUGGCAGCCCAGGAGAAGGUACAUGAGGAUCACCCAUGUGAUAA [Leatbi] (Eterna round: R97, puzzle: Exclusion 4) | 263 | 80.8 | – | – | – | – |
| AGGAUGUUAGGAUAUGCUAGAGUACUACAGAGUACUACGGAGCAGAAGGAACAUGAGGAUCACCCAUGUCACCU [Exclusion 4 R4 S1] (Eterna round: R97, puzzle: Exclusion 4) | 19.9 | 14 | – | – | – | – |
| AGGCGUGCUGAGGAUAUACUACCGGGUGCGAUAGUAGAAGGUAGCACAUGAGGAUCACCCAUGUGGUCAGAUGC [Qureaor] (puzzle: Exclusion 6) | – | – | – | 56.3 | 20 | 23.6 |
| AGGGAGCGAGGAUAUACAGAGUAGGAAACCACUCCCUCAGUACAUGAGGAUCACCCAUGUAGAAGGCGCCCGAA [EX2 A.8] (Eterna round: R97, puzzle: Exclusion 2) | 39.2 | 31.5 | – | – | – | – |
| AGGGAGUCAGGAUAUUAUUUUUAGCGGGAUAACGCUGAGGGUGAGAAGGGACAUGAGGAUCACCCAUGUUUUGA [JR_Ex4_Sub075] (Eterna round: R97, puzzle: Exclusion 4) | 167 | 183 | – | – | – | – |
| AGGGAUAAAGGAUAUACAUGAGGAUCACCCAUGUUGAGGAAAGUGAGAUGAGGAGGAAGUAGAAGGUUAGGCGG [JR_Exclu3_Sub084] (puzzle: Exclusion 3) | – | – | – | 35.7 | 33.9 | 31.4 |
| AGGUCCUUCUGGAGACAUGAGGAUCACCCAUGUCGGGUCAGCGAGGAUAUCGGUCAAUAAUGUGACGAGAAGGCGCGGACCGAU [Ex NG3 #57] (Eterna round: R96, puzzle: Exclusion NG 3) | 55.5 | 19.9 | 17.1 | – | – | – |
| AGGUGCUUCUGGAGACAUGAGGAUCACCCAUGUCGAGUUAGCGAGGAUAUCGGUAAGGCAUGUGAUGAGAAGGCGCAAACCGAU [Ex NG3 #50] (Eterna round: R96, puzzle: Exclusion NG 3) | 22.8 | 24.3 | 12.7 | – | – | – |
| AGGUGUAGAGGAUAUCGAAUCCUUUACAUGAGGAUCACCCAUGUCCUGGGCACCCAGGACCGAGAAGGCUACACCA [Omei Ex5 D33] (Eterna round: R97, puzzle: Exclusion 5) | 40.2 | 2350 | – | – | – | – |
| AGGUUGUGAGGAUAUUAGUUAUAUGAUUGGAGGAGUAUGGCUGAGAAGGCACAUGAGGAUCACCCAUGUAGAUC [JR_Ex4_Sub048] (Eterna round: R97, puzzle: Exclusion 4) | 555 | 162 | – | – | – | – |
| AGUAACAGAGGAUAUACUGUUUUAUGUGUUUAUUGUUUUAAACAUGAGGAUCACCCAUGUAGAAGGCUGAAUAA [JMF 85] (puzzle: Exclusion 2) | – | – | – | – | 25.5 | – |
| AGUAACAGAGGAUAUACUGUUUUAUGUGUUUGUUAUUUUAAACAUGAGGAUCACCCAUGUAGAAGGCUGAAUAA [JMF 83] (puzzle: Exclusion 2) | – | – | – | – | 21.4 | – |
| AGUAACCGUCACGAAAGUGAUGGUUACACAAGCAAUGAAACAUGAGGAUCACCCAUGUCCUCAUUUGCUCGUCUUAU [Sensor 3 - 40] (puzzle: Sensor v3, turn-off variant 2) | – | – | – | 25.5 | 486 | 26.8 |
| AGUACUAACACGAAAGUGUUAGUACAAUAAGCUAGUGGAACAUGAGGAUCACCCAUGUCCUCAUUAGCUCGUCUUAG [Mat - Sensor v3 - Turn-off var 2 - D35] (puzzle: Sensor v3, turn-off variant 2) | – | – | – | 15.4 | 39.7 | 15.1 |
| AGUACUAACACGAAAGUGUUAGUACAAUAAGCUUGUGAAACAUGAGGAUCACCCAUGUCCUCAUAAGCUCGUCUUAU [Mat - Sensor v2 -ver2- JL mod - D68] (Eterna round: R96, puzzle: Sensor v2, turn-off variant 2) | 15.4 | 17.6 | 468 | – | – | – |
| AGUACUAACACGAAAGUGUUAGUACAAUAAGCUUGUGAAACAUGAGGAUCACCCAUGUCCUCAUAAGCUCGUCUUAU [salish99_TOv2_r3_001again] (puzzle: Sensor v3, turn-off variant 2) | – | – | – | 16.7 | 648 | 15.9 |
| AGUACUAGCACGAAAGUGUUAGUACAAUAAGCUUGUGAAACAUGAGGAUCACCCAUGUCCUCAUAAGCUCGUCUUAU [salish99_TOv2_r3_020] (puzzle: Sensor v3, turn-off variant 2) | – | – | – | 18.2 | 429 | 16 |
| AGUACUAUGCGAGCUGACUUGCGUAGUGCAGCAGGUGUAACAUGAGGAUCACCCAUGUCCUCAUUUGCUCGUCUUAU [Mat - Sensor v3 - Turn-off var 2 - D8] (puzzle: Sensor v3, turn-off variant 2) | – | – | – | 250 | 326 | 248 |
| AGUAGAUCUACGCUUGCGUGGAUCUGCAAUGCAGGUGUUACAUGAGGAUCACCCAUGUCCUCAUUUGUUCGUCUUAG [JL turnoff v2 99.09] (puzzle: Sensor v3, turn-off variant 2) | – | – | – | 568 | 322 | 395 |
